Laboratory results: PMC10397247
One block for each binder: values may come before it.

Tests used:
4H496-bN = molecular target: T1, 4H496-bN; assay: two-hybrid library CCNG1;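 also: natural log of median RNA to DNA barcode read ratio; higher means stronger binding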
T1 chain: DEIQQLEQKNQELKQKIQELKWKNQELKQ

4H918-bH = molecular target: T2, 4H918-bH; assay: two-hybrid library CCNG1;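 also: natural log of median RNA to DNA barcode read ratio; higher means stronger binding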
T2 chain: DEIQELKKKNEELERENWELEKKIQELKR

4H883-bH = molecular target: T3, 4H883-bH; assay: two-hybrid library CCNG1;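 also: natural log of median RNA to DNA barcode read ratio; higher means stronger binding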
T3 chain: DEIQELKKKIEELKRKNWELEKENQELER

4H4001-bH = molecular target: T4, 4H4001-bH; assay: two-hybrid library CCNG1;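 also: natural log of median RNA to DNA barcode read ratio; higher means stronger binding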
T4 chain: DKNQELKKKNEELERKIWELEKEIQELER

4H3782-bH = molecular target: T5, 4H3782-bH; assay: two-hybrid library CCNG1;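 also: natural log of median RNA to DNA barcode read ratio; higher means stronger binding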
T5 chain: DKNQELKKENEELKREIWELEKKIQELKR

4H72-bH = molecular target: T6, 4H72-bH; assay: two-hybrid library CCNG1;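 also: natural log of median RNA to DNA barcode read ratio; higher means stronger binding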
T6 chain: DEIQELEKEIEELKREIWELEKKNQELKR

4H568-bH = molecular target: T7, 4H568-bH; assay: two-hybrid library CCNG1
T7 chain: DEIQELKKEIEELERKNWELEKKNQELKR

4H967-bH = molecular target: T8, 4H967-bH; assay: two-hybrid library CCNG1
T8 chain: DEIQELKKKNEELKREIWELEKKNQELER

4H687-bH = molecular target: T9, 4H687-bH; assay: two-hybrid library CCNG1
T9 chain: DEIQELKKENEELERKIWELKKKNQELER

4H454-bH = molecular target: T10, 4H454-bH; assay: two-hybrid library CCNG1
T10 chain: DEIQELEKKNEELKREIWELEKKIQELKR

4H717-bH = molecular target: T11, 4H717-bH; assay: two-hybrid library CCNG1
T11 chain: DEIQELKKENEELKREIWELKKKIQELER

4H797-bH = molecular target: T12, 4H797-bH; assay: two-hybrid library CCNG1
T12 chain: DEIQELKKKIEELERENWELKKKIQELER

4H3354-bH = molecular target: T13, 4H3354-bH; assay: two-hybrid library CCNG1
T13 chain: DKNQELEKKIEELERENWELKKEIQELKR

4H953-bH = molecular target: T14, 4H953-bH; assay: two-hybrid library CCNG1
T14 chain: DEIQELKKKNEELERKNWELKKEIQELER

4H338-bH = molecular target: T15, 4H338-bH; assay: two-hybrid library CCNG1
T15 chain: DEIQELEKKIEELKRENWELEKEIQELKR

4H754-bH = molecular target: T16, 4H754-bH; assay: two-hybrid library CCNG1
T16 chain: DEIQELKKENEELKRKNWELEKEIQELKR

4H3855-bH = molecular target: T17, 4H3855-bH; assay: two-hybrid library CCNG1
T17 chain: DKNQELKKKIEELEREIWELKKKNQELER

4H607-bH = molecular target: T18, 4H607-bH; assay: two-hybrid library CCNG1
T18 chain: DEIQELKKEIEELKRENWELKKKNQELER

4H3427-bH = molecular target: T19, 4H3427-bH; assay: two-hybrid library CCNG1
T19 chain: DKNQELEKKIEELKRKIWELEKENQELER

4H908-bH = molecular target: T20, 4H908-bH; assay: two-hybrid library CCNG1
T20 chain: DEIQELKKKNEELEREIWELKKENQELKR

4H249-AA = molecular target: T21, 4H249-AA; assay: two-hybrid library CCmax; settings: mean of both orientations
T21 chain: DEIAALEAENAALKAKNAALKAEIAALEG

4H3449-AA = molecular target: T22, 4H3449-AA; assay: two-hybrid library CCmax; settings: mean of both orientations
T22 chain: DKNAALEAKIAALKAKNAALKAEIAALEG

4H446-AA = molecular target: T23, 4H446-AA; assay: two-hybrid library CCmax; settings: mean of both orientations
T23 chain: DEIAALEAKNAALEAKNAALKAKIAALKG

4H3094-AA = molecular target: T24, 4H3094-AA; assay: two-hybrid library CCmax; settings: mean of both orientations
T24 chain: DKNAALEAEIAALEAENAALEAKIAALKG

4H3777-AA = molecular target: T25, 4H3777-AA; assay: two-hybrid library CCmax; settings: mean of both orientations
T25 chain: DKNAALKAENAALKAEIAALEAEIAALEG

4H3629-AA = molecular target: T26, 4H3629-AA; assay: two-hybrid library CCmax; settings: mean of both orientations
T26 chain: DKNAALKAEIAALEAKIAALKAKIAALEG

4H341-AA = molecular target: T27, 4H341-AA; assay: two-hybrid library CCmax; settings: mean of both orientations
T27 chain: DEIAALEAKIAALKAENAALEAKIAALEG

4H2961-AA = molecular target: T28, 4H2961-AA; assay: two-hybrid library CCmax; settings: mean of both orientations
T28 chain: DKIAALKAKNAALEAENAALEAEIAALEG

4H2621-AA = molecular target: T29, 4H2621-AA; assay: two-hybrid library CCmax; settings: mean of both orientations
T29 chain: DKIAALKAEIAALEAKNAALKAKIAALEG

4H324-AA = molecular target: T30, 4H324-AA; assay: two-hybrid library CCmax; settings: mean of both orientations
T30 chain: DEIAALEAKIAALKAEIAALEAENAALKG

4H2580-AA = molecular target: T31, 4H2580-AA; assay: two-hybrid library CCmax; settings: mean of both orientations
T31 chain: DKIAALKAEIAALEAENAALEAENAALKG

4H3915-AA = molecular target: T32, 4H3915-AA; assay: two-hybrid library CCmax; settings: mean of both orientations
T32 chain: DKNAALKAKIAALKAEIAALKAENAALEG

4H235-AA = molecular target: T33, 4H235-AA; assay: two-hybrid library CCmax
T33 chain: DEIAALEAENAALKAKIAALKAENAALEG

4H3049-AA = molecular target: T34, 4H3049-AA; assay: two-hybrid library CCmax; settings: mean of both orientations
T34 chain: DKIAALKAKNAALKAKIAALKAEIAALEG

4H2903-AA = molecular target: T35, 4H2903-AA; assay: two-hybrid library CCmax; settings: mean of both orientations
T35 chain: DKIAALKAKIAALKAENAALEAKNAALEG

4H2947-AA = molecular target: T36, 4H2947-AA; assay: two-hybrid library CCmax; settings: mean of both orientations
T36 chain: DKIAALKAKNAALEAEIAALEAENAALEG

4H3619-AA = molecular target: T37, 4H3619-AA; assay: two-hybrid library CCmax; settings: mean of both orientations
T37 chain: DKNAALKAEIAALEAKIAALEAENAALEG

4H2604-AA = molecular target: T38, 4H2604-AA; assay: two-hybrid library CCmax; settings: mean of both orientations
T38 chain: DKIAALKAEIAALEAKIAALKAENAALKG

4H432-AA = molecular target: T39, 4H432-AA; assay: two-hybrid library CCmax; settings: mean of both orientations
T39 chain: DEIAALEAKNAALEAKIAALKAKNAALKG

4H2760-AA = molecular target: T40, 4H2760-AA; assay: two-hybrid library CCmax; settings: mean of both orientations
T40 chain: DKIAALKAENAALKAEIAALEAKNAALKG

4H380-AA = molecular target: T41, 4H380-AA; assay: two-hybrid library CCmax; settings: mean of both orientations
T41 chain: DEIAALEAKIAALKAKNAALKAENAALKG

4H2774-AA = molecular target: T42, 4H2774-AA; assay: two-hybrid library CCmax; settings: mean of both orientations
T42 chain: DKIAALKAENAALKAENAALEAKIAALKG

4H63-AA = molecular target: T43, 4H63-AA; assay: two-hybrid library CCmax; settings: mean of both orientations
T43 chain: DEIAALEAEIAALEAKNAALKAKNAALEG

4H3974-AA = molecular target: T44, 4H3974-AA; assay: two-hybrid library CCmax; settings: mean of both orientations
T44 chain: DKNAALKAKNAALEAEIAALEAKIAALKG

O7 = molecular target: T45, O7; assay: two-hybrid library CC0; settings: mean of both orientations
T45 chain: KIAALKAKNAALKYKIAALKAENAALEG

O8 = molecular target: T46, O8; assay: two-hybrid library CC0; settings: mean of both orientations
T46 chain: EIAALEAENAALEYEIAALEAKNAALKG

O6 = molecular target: T47, O6; assay: two-hybrid library CC0; settings: mean of both orientations
T47 chain: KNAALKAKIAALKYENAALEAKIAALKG

O4 = molecular target: T48, O4; assay: two-hybrid library CC0; settings: mean of both orientations
T48 chain: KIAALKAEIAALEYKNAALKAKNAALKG

O9 = molecular target: T49, O9; assay: two-hybrid library CC0; settings: mean of both orientations
T49 chain: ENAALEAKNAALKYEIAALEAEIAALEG

O3 = molecular target: T50, O3; assay: two-hybrid library CC0; settings: mean of both orientations
T50 chain: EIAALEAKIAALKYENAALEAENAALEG

O2 = molecular target: T51, O2; assay: two-hybrid library CC0; settings: mean of both orientations
T51 chain: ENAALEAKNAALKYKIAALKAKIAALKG

O5 = molecular target: T52, O5; assay: two-hybrid library CC0; settings: mean of both orientations
T52 chain: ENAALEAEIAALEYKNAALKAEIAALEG

interaction score (4H496-bN): -0.0824
Binder: DEIQQLEQKNQELKQKIQELKWKNQELKQ [4H496-bN]

interaction score (4H918-bH): 0.89
interaction score (4H883-bH): -0.344
interaction score (4H4001-bH): -0.37
interaction score (4H3782-bH): -0.062
interaction score (4H72-bH): -1.11
interaction score (4H568-bH): -1.08
interaction score (4H967-bH): -0.105
interaction score (4H687-bH): -2.6
interaction score (4H454-bH): 0.274
interaction score (4H717-bH): 0.648
interaction score (4H797-bH): 0.357
interaction score (4H3354-bH): 1.31
interaction score (4H953-bH): -1.49
interaction score (4H338-bH): 0.838
interaction score (4H754-bH): -0.2
interaction score (4H496-bN): 0.755
interaction score (4H3855-bH): -0.383
interaction score (4H607-bH): -1.77
interaction score (4H3427-bH): 0.568
interaction score (4H908-bH): -1.61
Binder: DKNQELEKKIEELERENWELKKEIQELKR [4H3354-bH]

interaction score (4H249-AA): -1.7
interaction score (4H3449-AA): 0.816
interaction score (4H446-AA): -1.78
interaction score (4H3094-AA): 0.0844
interaction score (4H3777-AA): 0.00925
interaction score (4H3629-AA): -1.09
interaction score (4H341-AA): -0.261
interaction score (4H2961-AA): -1.27
interaction score (4H2621-AA): -0.985
interaction score (4H324-AA): -1.12
interaction score (4H2580-AA): -0.865
interaction score (4H3915-AA): -1.49
interaction score (4H235-AA): -1.14
interaction score (4H3049-AA): -0.98
interaction score (4H2903-AA): -1.68
interaction score (4H2947-AA): 0.136
interaction score (4H3619-AA): -1.48
interaction score (4H2604-AA): -1.14
interaction score (4H432-AA): -0.27
interaction score (4H2760-AA): 2.27
interaction score (4H380-AA): -1.71
interaction score (4H2774-AA): 1.48
interaction score (4H63-AA): -1.28
interaction score (4H3974-AA): -0.571
Binder: DEIAALEAENAALKAKIAALKAENAALEG [4H235-AA]

Binder: ENAALEAKNAALKYKIAALKAKIAALKG [O2]
interaction score (O7): -2.83
interaction score (O8): -2.05
interaction score (O6): -2.73
interaction score (O4): -2.74
interaction score (O9): -1.04
interaction score (O3): -2.68
interaction score (O2): -2.68
interaction score (O5): -2.66
